# Reference: article PMC8683613
# Tests used:
# [1] = biological target: oxygen-cleaved pyruvate formate-lyase mimic (cPFL, residues 1-733) (E. coli)
# [2] = biological target: truncated pyruvate formate-lyase (tPFL, residues 1-695) (E. coli)
# [3] = biological target: oxygen-cleaved pyruvate formate-lyase mimic (cPFL, residues 1-733) (E. coli); assay: ITC; YfiD variant in the syringe titrated into the PFL variant in the cell, matched buffer; MicroCal iTC200, 25 °C, 20 injections of 2.0 μl
# [4] = biological target: oxygen-cleaved pyruvate formate-lyase mimic (cPFL, residues 1-733) (E. coli); remark: listed apart in the source
# Chain of oxygen-cleaved pyruvate formate-lyase mimic (cPFL, residues 1-733) (E. coli) (P09373 2-734 limits assumed): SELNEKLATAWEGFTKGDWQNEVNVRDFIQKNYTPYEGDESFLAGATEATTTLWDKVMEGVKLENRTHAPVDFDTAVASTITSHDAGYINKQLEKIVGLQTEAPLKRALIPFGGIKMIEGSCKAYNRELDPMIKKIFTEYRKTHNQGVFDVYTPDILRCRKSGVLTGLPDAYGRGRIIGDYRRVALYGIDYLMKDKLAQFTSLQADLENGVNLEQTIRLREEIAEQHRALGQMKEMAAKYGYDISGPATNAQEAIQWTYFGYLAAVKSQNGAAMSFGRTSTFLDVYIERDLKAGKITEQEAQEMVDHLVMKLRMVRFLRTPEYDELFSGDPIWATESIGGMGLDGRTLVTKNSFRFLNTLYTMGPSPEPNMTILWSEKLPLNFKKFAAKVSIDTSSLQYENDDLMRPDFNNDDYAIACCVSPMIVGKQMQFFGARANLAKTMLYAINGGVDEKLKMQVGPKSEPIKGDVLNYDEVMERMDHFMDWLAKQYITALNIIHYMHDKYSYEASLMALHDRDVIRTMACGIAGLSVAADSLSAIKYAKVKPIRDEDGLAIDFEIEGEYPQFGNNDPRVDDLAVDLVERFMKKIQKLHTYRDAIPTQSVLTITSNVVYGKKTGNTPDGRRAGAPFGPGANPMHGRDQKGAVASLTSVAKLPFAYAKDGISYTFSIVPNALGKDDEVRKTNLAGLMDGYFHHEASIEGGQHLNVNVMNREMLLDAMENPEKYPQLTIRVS
# Chain of truncated pyruvate formate-lyase (tPFL, residues 1-695) (E. coli) (P09373 1-695): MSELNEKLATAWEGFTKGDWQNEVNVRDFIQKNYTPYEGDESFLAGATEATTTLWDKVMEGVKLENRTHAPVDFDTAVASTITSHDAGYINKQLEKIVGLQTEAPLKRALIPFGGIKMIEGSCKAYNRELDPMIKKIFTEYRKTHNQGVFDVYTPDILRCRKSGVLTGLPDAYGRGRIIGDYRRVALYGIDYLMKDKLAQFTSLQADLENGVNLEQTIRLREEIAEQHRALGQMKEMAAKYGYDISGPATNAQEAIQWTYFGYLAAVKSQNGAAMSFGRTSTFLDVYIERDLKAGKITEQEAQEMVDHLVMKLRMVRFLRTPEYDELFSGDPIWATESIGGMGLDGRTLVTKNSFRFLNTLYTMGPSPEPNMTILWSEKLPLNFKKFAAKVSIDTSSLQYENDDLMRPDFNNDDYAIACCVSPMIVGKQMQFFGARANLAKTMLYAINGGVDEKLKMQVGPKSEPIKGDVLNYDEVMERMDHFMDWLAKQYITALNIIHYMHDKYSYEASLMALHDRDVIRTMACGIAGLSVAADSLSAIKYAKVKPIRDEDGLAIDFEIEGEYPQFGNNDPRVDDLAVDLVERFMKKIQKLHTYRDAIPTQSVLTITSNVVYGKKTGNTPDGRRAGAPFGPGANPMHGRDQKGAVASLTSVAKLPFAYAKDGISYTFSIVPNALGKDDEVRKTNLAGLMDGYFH
Kd [3],"apparent kcat of acetyl-CoA production by the activated cPFL:truncYfiD complex (coupled assay, 21 °C, per glycyl radical) [4]",Substance,"glycyl radical installed by PFL-AE on the 1:1 cPFL:YfiD mixture (200 μM each), quantified by EPR; no detectable radical for the individual components [1]","glycyl radical installed by PFL-AE on the 1:1 tPFL:YfiD mixture (200 μM each), quantified by EPR [2]","glycyl radical installed by PFL-AE on the 1:1 cPFL:truncYfiD mixture (200 μM each), quantified by EPR [1]","glycyl radical installed by PFL-AE on the 1:1 tPFL:truncYfiD mixture (200 μM each), quantified by EPR [2]"
14 µM,–,"YfiD (spare part protein, autonomous glycyl radical cofactor) (from UniProt P68066 1-127) (natural protein)",15.9 µM,0.5 µM,–,–
–,186 s⁻¹,"truncated YfiD (truncYfiD, residues 61-127) (from UniProt P68066 61-127) (domain or fragment)",–,–,4.1 µM,2.7 µM
